In assay [1] the target is T1, human CD3 (Jurkat cells) (human, UniProt P07766).
T1 chain: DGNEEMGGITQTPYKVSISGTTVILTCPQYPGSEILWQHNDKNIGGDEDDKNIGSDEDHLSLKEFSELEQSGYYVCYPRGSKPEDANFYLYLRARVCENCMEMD
The assay can be described thus: FACS, Jurkat cells. On the technique in general: A flow cytometer gives signals particle by particle.

The target in assay [2] is human GPC3 protein (human, UniProt P51654). The assay can be described thus: SPR.
In assay [3] the target is human GPC3 (HepG2 cells) (human, UniProt P51654). The assay can be described thus: FACS, HepG2 cells.
Assay [4] concerns the target T2, monkey CD3 E&D protein (cynomolgus monkey, UniProt Q95LI5).
T2 chain 1: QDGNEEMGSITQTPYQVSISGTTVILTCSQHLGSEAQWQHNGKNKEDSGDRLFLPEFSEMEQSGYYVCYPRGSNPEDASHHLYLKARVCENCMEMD
T2 chain 2: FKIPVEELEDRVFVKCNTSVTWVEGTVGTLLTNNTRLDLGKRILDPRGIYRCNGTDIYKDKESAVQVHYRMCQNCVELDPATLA
In words: SPR. (In general: Surface plasmon resonance follows binding to a sensor surface in real time, without labels.)

For assay [5], the target named is T3, human CD3 E&D protein (human, UniProt P07766).
T3 chain 1: T1 chain
T3 chain 2: T2 chain 2 with V5I, K15N, V20I, T32S, N33D, N34I, A64T, N74S, L83V
The assay can be described thus: SPR.

Residue numbers refer to the chain shown, from its start.

Chain of human GPC3 (HepG2 cells) (P51654 25-554): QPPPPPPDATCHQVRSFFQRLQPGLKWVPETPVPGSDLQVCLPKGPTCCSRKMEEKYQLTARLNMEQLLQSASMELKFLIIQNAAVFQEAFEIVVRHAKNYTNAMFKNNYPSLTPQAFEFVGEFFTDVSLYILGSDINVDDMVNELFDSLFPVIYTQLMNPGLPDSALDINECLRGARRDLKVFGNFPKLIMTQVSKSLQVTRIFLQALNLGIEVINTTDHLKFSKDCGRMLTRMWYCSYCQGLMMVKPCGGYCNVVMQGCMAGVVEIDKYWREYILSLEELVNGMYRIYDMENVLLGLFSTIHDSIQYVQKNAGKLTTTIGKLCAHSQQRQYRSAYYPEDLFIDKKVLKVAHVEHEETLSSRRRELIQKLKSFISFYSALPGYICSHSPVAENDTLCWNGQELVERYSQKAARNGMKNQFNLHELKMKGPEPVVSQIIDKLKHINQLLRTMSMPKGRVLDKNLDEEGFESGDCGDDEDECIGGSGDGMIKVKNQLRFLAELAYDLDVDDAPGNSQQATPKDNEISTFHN
Chain of human GPC3 protein (P51654 25-554): as above

B1: G100 (anti-CD3 scFv arm) (antibody, V domains shown)
VH: EVKLVESGGGLVQPGGSLKLSCAASGFTFNTYAMNWVRQAPGKGLEWVARIRSKYNNYATYYADSVKDRFTISRDDAKNTLYLQMNNLRTEDTAVYYCVRHGNFGNSYVSWFAYWGQGTLVTVSS
VL: QAVVTQEPSLTVSPGGTVTLTCRSSTGAVTTSNYANWVQQKPGQAPRGLIGGTNKRAPGTPARFSGSLLGGKAALTLSGAQPEDEAEYYCALWYSNLWVFGGGTKLTVL
In the case of B1, in assay [1], the EC50 (as a rule, the concentration that produces a half-maximal response) came to 23.9 nM.

B2: G156 (anti-GPC3 VHH arm, two VHH copies, Format 2) (antibody, V domains shown)
VH: QVQLVESGGGVVQPGGSLRLSCAASGRTLTNYVMGWFRQAPGKEREIVAGINWAGSRIGYGDFVKGRFTISRDNSKNTVYLQMNSLRPEDTAVYYCAAKLGKYNYPEYDYRGQGTLVTVSS
VL: B1 VL
Regarding B2, the dissociation constant Kd (in general, the concentration at which binding is half-saturated) in assay [2] came out at 5.42 nM. Moreover, it took 0.16 nM to reach a half-maximal effect in assay [3] (EC50).

B3: G156 (anti-CD3 scFv arm) (antibody, V domains shown)
VH: B1 VH
VL: B1 VL
modifications: Acro CDD-C52W4
Consider B3, for which the affinity in assay [4], expressed as Kd, was 2.79 nM.

B4: G156 (anti-CD3 scFv arm) (antibody, V domains shown)
VH: B1 VH
VL: B1 VL
In turn, B4 registered an EC50 in assay [1] of 27.4 nM.

B5: G100 (anti-CD3 scFv arm) (antibody, V domains shown)
VH: B1 VH
VL: B1 VL
modifications: Acro CDD-H52W1
In turn, B5 had a Kd in assay [5] of 3.49 nM.

B6: G100 (anti-GPC3 VHH arm, monovalent, Format 1) (antibody, V domains shown)
VH: B2 VH
VL: B1 VL
B6 gave a Kd in assay [2] of 8.36 nM. Also, the EC50 in assay [3] is 0.42 nM.

B7: G100 (anti-CD3 scFv arm) (antibody, V domains shown)
VH: B1 VH
VL: B1 VL
modifications: Acro CDD-C52W4
For the molecule B7, the Kd in assay [4] is 5.66 nM.

B8: G156 (anti-CD3 scFv arm) (antibody, V domains shown)
VH: B1 VH
VL: B1 VL
modifications: Acro CDD-H52W1
In assay [5], B8 came in with a Kd of 1.3 nM.

(Values after patent publication EP4613767 (dated 2025).)
